Source: paper PMC12197088

Experiments:
[1] = biological target: nucleolin (NCL), cell surface of MCF-7 (UniProt P19338); experiment: flow cytometry; conditions: intact MCF-7 cells (apparent cellular Kd); Dulbecco's PBS with CaCl2 and MgCl2, 4.5 g/L glucose, 5 mM MgCl2, 0.1 mg/mL yeast tRNA, 1 mg/mL BSA; on ice 30 min; pH not stated
[2] = biological target: nucleolin (NCL), cell surface of MCF-7;IGFIIR, cell surface of MCF-7 (UniProt P19338+P11717); experiment: flow cytometry; conditions: intact MCF-7 cells (apparent cellular Kd); Dulbecco's PBS with CaCl2 and MgCl2, 4.5 g/L glucose, 5 mM MgCl2, 0.1 mg/mL yeast tRNA, 1 mg/mL BSA; on ice 30 min; pH not stated
nucleolin (NCL), cell surface of MCF-7;IGFIIR, cell surface of MCF-7, sequence (P19338 2-710, chain 1 of 2): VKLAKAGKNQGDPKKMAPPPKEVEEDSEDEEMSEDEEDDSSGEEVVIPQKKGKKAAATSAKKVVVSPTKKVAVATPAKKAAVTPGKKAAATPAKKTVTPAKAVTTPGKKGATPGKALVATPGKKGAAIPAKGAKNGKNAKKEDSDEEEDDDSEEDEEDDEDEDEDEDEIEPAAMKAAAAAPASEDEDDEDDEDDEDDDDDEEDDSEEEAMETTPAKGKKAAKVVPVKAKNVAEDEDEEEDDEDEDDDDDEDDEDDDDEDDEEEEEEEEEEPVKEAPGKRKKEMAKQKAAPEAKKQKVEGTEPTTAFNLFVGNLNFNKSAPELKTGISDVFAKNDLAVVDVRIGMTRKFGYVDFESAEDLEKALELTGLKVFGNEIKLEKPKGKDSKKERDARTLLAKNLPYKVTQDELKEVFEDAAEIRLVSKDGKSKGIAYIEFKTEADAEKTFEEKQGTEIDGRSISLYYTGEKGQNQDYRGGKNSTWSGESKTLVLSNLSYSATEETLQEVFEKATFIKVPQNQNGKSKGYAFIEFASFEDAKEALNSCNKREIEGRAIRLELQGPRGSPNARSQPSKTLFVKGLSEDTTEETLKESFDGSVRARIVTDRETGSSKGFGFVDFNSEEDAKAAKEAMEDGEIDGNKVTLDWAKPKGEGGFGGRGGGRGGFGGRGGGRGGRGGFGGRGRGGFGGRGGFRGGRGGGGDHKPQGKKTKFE
nucleolin (NCL), cell surface of MCF-7;IGFIIR, cell surface of MCF-7, sequence (P11717 41-2491, chain 2 of 2): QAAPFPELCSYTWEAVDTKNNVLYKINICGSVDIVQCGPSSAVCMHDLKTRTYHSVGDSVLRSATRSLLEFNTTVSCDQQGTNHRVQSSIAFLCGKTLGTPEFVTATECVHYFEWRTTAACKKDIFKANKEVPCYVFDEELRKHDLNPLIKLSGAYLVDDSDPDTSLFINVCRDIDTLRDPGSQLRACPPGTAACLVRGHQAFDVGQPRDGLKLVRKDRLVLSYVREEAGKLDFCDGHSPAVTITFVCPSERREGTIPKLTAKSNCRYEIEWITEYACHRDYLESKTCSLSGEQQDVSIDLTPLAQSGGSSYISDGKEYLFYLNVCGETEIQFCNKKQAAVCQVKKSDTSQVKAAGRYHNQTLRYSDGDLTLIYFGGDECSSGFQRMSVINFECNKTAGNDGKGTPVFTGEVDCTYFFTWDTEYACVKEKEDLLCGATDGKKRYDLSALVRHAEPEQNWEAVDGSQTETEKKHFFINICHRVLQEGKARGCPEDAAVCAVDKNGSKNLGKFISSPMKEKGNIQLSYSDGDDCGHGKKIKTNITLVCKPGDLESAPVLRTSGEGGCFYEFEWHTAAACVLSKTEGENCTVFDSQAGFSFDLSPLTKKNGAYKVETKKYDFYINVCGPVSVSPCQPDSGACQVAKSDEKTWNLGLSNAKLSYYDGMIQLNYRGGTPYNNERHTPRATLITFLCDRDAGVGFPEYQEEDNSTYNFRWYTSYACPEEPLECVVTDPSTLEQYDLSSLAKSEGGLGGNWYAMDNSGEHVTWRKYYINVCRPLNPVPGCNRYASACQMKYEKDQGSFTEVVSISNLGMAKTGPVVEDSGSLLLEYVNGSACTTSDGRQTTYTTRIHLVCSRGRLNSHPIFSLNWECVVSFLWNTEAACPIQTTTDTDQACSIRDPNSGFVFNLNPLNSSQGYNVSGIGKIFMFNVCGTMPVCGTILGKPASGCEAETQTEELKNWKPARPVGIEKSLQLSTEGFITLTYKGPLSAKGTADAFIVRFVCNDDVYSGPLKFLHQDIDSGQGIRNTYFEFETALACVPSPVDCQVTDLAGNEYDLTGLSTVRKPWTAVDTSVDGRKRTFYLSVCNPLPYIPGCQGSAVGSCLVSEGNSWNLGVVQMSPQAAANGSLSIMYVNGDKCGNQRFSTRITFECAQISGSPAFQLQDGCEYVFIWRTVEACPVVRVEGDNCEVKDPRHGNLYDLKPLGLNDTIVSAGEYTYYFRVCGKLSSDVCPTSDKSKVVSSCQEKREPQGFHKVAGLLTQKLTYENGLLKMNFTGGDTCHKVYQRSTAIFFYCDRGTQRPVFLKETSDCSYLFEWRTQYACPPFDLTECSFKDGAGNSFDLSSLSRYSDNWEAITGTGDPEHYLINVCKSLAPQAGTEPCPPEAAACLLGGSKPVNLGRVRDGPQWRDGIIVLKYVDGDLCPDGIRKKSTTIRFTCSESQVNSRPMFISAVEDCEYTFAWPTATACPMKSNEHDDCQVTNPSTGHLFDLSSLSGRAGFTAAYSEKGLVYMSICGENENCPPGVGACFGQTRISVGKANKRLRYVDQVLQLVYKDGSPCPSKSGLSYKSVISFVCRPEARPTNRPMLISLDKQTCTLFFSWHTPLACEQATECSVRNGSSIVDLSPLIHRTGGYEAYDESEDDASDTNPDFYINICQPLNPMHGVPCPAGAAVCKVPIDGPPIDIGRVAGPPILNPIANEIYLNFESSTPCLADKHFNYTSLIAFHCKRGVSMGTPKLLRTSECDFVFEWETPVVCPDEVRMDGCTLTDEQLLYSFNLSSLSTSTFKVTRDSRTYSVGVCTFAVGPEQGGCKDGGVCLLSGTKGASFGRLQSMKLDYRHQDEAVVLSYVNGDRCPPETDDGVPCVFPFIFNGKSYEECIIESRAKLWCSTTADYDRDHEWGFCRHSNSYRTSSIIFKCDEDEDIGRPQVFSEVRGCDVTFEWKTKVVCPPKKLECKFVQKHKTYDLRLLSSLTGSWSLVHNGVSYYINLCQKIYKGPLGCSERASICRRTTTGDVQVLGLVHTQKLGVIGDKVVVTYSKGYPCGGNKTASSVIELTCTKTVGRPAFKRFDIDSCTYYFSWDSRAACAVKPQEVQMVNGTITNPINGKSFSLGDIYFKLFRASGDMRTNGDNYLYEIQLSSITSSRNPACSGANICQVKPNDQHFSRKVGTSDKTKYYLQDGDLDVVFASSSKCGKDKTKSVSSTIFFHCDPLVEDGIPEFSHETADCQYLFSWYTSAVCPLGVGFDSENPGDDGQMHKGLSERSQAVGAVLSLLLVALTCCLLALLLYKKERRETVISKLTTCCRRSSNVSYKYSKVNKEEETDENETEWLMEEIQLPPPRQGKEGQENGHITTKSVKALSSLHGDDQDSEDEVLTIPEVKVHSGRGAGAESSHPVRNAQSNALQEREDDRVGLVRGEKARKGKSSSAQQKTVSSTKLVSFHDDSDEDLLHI

nucleolin (NCL), cell surface of MCF-7, sequence (P19338 2-710): as the sequence (P19338 2-710, chain 1 of 2) above

| Sequence | Kd [1] | Kd [2] |
| --- | --- | --- |
| GGTGGTGGTGGTTGTGGTGGTGGTGG [AS1411 (NCL aptamer)] | 137 nM |  |
| TTTTTTTTTTTTTTTGGGCGCGTAGATGACGAGCAGTCCTAACATCGTTTAGGAC / AAAAAAAAAAAAAAAGGTGGTGGTGGTTGTGGTGGTGGTGG [Mo-AS (monovalent NCL/IGFIIR chimera)] |  | 518 nM |
